B1: POU domain, class 3, transcription factor 3, residues 320 to 388; numbered along this chain, P20264 (parent)
chain: DDLEQFAKQFKQRRIKLGFTQADVGLALGTLYGNVFSQTTICRFEALQLSFKNMCKLKPLLNKWLEEAD

Variants of: B1
Assay: abundance fitness (aPCA) (normalised: wild type 0, dead -1); higher = more abundant; growth selection in yeast, the domain comes from the species named
Settings: Homo sapiens

Abundance fitness: each site, then its substitutions
R43: Q -0.113; H -0.586; M -0.62; P -0.975; W -0.866; T -0.946; G -0.798; C -0.447; E -0.076; K -0.034; D -0.402; L -0.858
L31: V -0.195; K -0.118; Y -0.334; D -0.017; I 0.076; M -0.156; R 0.031; Q -0.116; W -0.387; C -0.237; A -0.299; S -0.137; G -0.565; H -0.229; P -0.551; F -0.023
N53: D 0.012; Y -0.357; L -0.148; R -0.037; A -0.035; V -0.306; H -0.09; C -0.255; W -0.102; F -0.513; G -0.148; I -0.167; S -0.257; P -0.613; M 0.114; E 0.049; Q -0.044; T 0.051
F36: C 0.219; Q -0.214; Y -0.04; K -0.364; W -0.714; E -0.121; V 0.017; P -0.043; M 0.021; A -0.068; H -0.216; T 0.071; R 0.368; L -0.07
M54: L -0.428; C -0.636; P -1.05; I -0.911; F -0.96; Q -0.7
N34: I -0.235; M -0.22; S 0.109; E 0.136; D -0.085; H -0.094; T -0.098; K 0.081; V -0.21; A -0.036; G 0.074; F -0.569; C 0.307; R -0.051; Y -0.295; Q -0.172; L -0.468; W -0.84
K52: N -0.093
T30: R -0.08; K 0.336; G -0.013; I -0.446; S 0.01; N -0.348; V -0.034; Q 0.1; M -0.077; W -0.421; Y -0.459; F -0.514; P -0.115; H -0.232; L -0.325
T40: A -0.386; G -0.92; I -0.553; N -0.734; S -0.49; Q -0.102; R -0.583; W -0.441; E -0.237; P -0.704; D -0.393; K -0.179; C -0.615; V -0.174; Y -0.59; H -0.778
A46: D -0.573; M 0.22; K 0.205; Q -0.282; I -0.727; R -0.277; T -0.142; C -0.299; S -0.059; P -0.843; G -0.053; W -0.601; E -0.178; H -0.043; V -0.702
Q48: L -0.375; T -0.187; A -0.612; S -0.205; G -0.264; M -0.599; E -0.088; K -0.177; R -0.416; I -0.835; W -0.453
Q38: L -0.531; N -0.435; S -0.082; P -0.028; H -0.524; G 0.003; F -0.356; Y -0.207; E 0.192; R -0.103; T 0.079; D -0.075; V -0.421; M -0.498; C -0.32; A -0.143; K -0.18
G33: I -0.7; M -0.792; D -0.545; L -0.922; W -0.722; A -0.382; V -1.09; P -0.204; H -0.753; F -0.766; S -0.885; Q -0.263; Y -0.523
V35: C -0.417; N -0.601; E 0.172; A -0.537; S -0.125; P -0.105; M -0.278; F -0.179; D 0.091; T 0.304; L -0.462; H -0.152; Y -0.108; Q 0.033; G -0.204; R -0.009; I -0.609
S50: F -0.711; C -0.786; E -0.18; L -0.833; K -0.302; Q 0.161; G -0.561; N -0.922; V -1.04; A -0.751; D -0.074; P 0.034
E45: K -0.649; L -0.628; W -0.787; P -0.803; S -0.628; V -0.946; F -0.58; A -0.511; T -0.729; Q 0.081; M -0.82; R -0.891; G -0.982
S37: K -0.532; H -0.076; V -0.7; R -0.55; Y -0.725; N -0.338; F -0.841; A -0.246; E -0.32; D -0.157; C -0.629; L -0.629; G -0.44; Q -0.386; T -0.337
L49: S -0.649; F -0.865; A -0.441; R -0.385; V -0.934; P -0.65; H -0.697; T -0.846; N -0.594; W -0.021; K -0.548; M -0.078; Y -0.582; C -0.873; E -0.573; I -1.01
C42: T -0.176; P -0.276; M -0.284; D 0.032; A 0.076; I 0.11; S -0.14; Q 0.06; L -0.193; H -0.006; Y 0.055; N 0.208; R 0.054; W -0.38; G -0.014; K 0.13
F51: A -0.081; R 0.035; T 0.061; P 0.064; D -0.14; K 0.132; W -0.567; Q 0.142; E 0.115; C -0.416; I -0.51; H 0.051; V 0.013; G -0.136; Y -0.247; S -0.002; M -0.231; N -0.002
L47: D -0.661; S -0.29; M 0.113; A -0.342; R 0.039; Y -0.131; C 0.021; V -0.039; K -0.111; F -0.293; H 0.083; T -0.602; G -0.038; N 0.599; E -0.662
F44: P -1.02; R -0.946; A -1.04; V -0.678; M -0.725; K -0.696; G -0.772; W -0.568; L -0.859
Y32: K -0.559; V -0.557; P -0.685; Q -0.102; T -0.526; E -0.335; A -0.412; D -0.352; G -0.225; W -0.276; M -0.647; S 0.108; R -0.44; L 0.017; H -0.099
T39: D 0.014; F -0.509; H 0.074; A -0.011; L -0.195; I -0.157; Q -0.077; R -0.058; K -0.006; P -0.579; W -0.846; E 0.11; G -0.215; Y -0.769; S -0.099; M -0.502
